Experimental data: the supplement of paper PMC9170038

Test system: MS2 coat protein
Assay: apparent KD of MS2 coat protein; designed switch direction (-1 OFF switch, 1 ON switch): -1; higher = weaker reporter binding
How it was run: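 Three titration conditions were used: no input, 200 uM small-molecule ligand, and an oligonucleotide input. In each, SNAP-549-labelled MS2 coat protein was raised from 0.7 or 1.5 nM, doubling, to 3 µM over designed RNA switches transcribed on Illumina chips by stalled E. coli RNA polymerase. Curve fits of normalised cluster fluorescence gave values whose per-design median over clusters is the apparent KD.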

[1] = Eterna round: R95, input ligand: microRNA oligo, concentration not stated
[2] = Eterna round: R95, input ligand: FMN 200 uM
[3] = Eterna round: R95, input ligand: none
[4] = input ligand: microRNA oligo, concentration not stated

| Sequence | apparent KD of MS2 coat protein [1] [nM] | apparent KD of MS2 coat protein (input ligand: FMN 200 uM) [nM] | apparent KD of MS2 coat protein (input ligand: none) [nM] | also measured |
| --- | --- | --- | --- | --- |
| CUUUAGUGAGGAUAUUAGUAGUAAUACAAUAGUAUUACUACUGAGAAGGCACAUGAGGAUCACCCAUGUUCCUC [Mat - Exclusion 4 - Mod of Omei - D79] (puzzle: Exclusion 4) | 28 | – | – | – |
| CUUUCGUGAGGAUAUCAGUAGUAAUAAUAUAAAAUUACUACUGAGAAGGCACAUGAGGAUCACCCAUGUUCCUC [salish99_ex3_r3_101] (puzzle: Exclusion 4) | 23.7 | – | – | – |
| CUUUCGUGAGGAUAUGAAGCUUCGAUCGUGAGAUCGAGGCUACAGAAGGCACAUGAGGAUCACCCAUGUUCCUC [salish99_ex4_r4_217] (Eterna round: R97, puzzle: Exclusion 4) | – | 666 | 31.9 | – |
| CUUUCGUGAGGAUAUGUGGCUUCGAUCGUGCGAUCGAGGCUACAGAAGGCACAUGAGGAUCACCCAUGUUCCUC [salish99_ex4_r4_221] (Eterna round: R97, puzzle: Exclusion 4) | – | 427 | 45.6 | – |
| CUUUUCAGAGGAUAUAGAUAUUAUCACAUGAGGAUCACCCAUGUAACCCUACAUUCACCACUAGAAGGCUGUUAAG [lam1] (Eterna round: R97, puzzle: Exclusion 5) | – | 27.1 | 48.5 | – |
| CUUUUGUGAGGAUAUCAGUAGUAAAAAAAUAAAAUUACUACUGAGAAGGCACAUGAGGAUCACCCAUGUUCCUU [salish99_ex4_r3_010] (puzzle: Exclusion 4) | 15.2 | – | – | apparent KD of MS2 coat protein [2]: 28.4 nM; apparent KD of MS2 coat protein [3]: 14 nM |
| CUUUUGUGAGGAUAUCAGUAGUAAAUAAAUAAAAUUACUACUGAGAAGGCACAUGAGGAUCACCCAUGUUCCUU [salish99_ex3_r3_089] (puzzle: Exclusion 4) | 15.3 | – | – | – |
| CUUUUGUGAGGAUAUCAGUAGUAAAUAAUUAAAAUUACUACUGAGAAGGCACAUGAGGAUCACCCAUGUUCCUC [salish99_ex3_r3_080] (puzzle: Exclusion 4) | 40.3 | – | – | – |
| CUUUUGUGAGGAUAUCAGUAGUAAUACAAUAGUAUUACUACUGAGAAGGCACAUGAGGAUCACCCAUGUUUCUC [Ex4 344 Omei mod 3] (puzzle: Exclusion 4) | 39.8 | – | – | – |
| CUUUUGUGAGGAUAUCAUUAGUAAAUAAAUAAAAUUACUACUGAGAAGGCACAUGAGGAUCACCCAUGUUCCUC [salish99_ex3_r3_072] (puzzle: Exclusion 4) | 31.8 | – | – | – |
| CUUUUGUGAGGAUAUUAGUAGUAAAUGAAUAAAAUUAUUACUGAGAAGGUACAUGAGGAUCACCCAUGUUCCUU [Mat - Exclusion 4 - Eli Mod - D20] (Eterna round: R97, puzzle: Exclusion 4) | – | 16.3 | 14.3 | – |
| CUUUUGUGAGGAUAUUAGUUGUAAAUAAAUAAAAUUACUACUGAGAAGGCACAUGAGGAUCACCCAUGUUCCUC [salish99_ex4_r3_049] (puzzle: Exclusion 4) | 33.2 | – | – | – |
| CUUUUGUGAGGAUAUUCGUAGUAAAUGAAUAAAAUUAUUACGGAGAAGGCACAUGAGGAUCACCCAUGUUCCUU [Mat - Exclusion 4 - Eli Mod - D32] (Eterna round: R97, puzzle: Exclusion 4) | – | 53.2 | 16.7 | – |
| GAAAACGAAGAGGAUAUAUGAUAUCAAAGCUUCAUAGAAGGCUUCACAUGAGGAUCACCCAUGUGAUCUUCAAA [jl-ex6-4.07 ViennaUCT mod] (Eterna round: R97, puzzle: Exclusion 6) | – | 262 | 37.9 | – |
| GAAAAGGUAGGAUAUACGAAAAAAGAGGGUAGAAAAAAAACACAUGAGGAUCACCCAUGUAGAAGGACCAAAAG [salish99_ex2_r3_025] (puzzle: Exclusion 2) | 32.1 | – | – | apparent KD of MS2 coat protein [2]: 60.2 nM; apparent KD of MS2 coat protein [3]: 24.9 nM |
| GAAAAGUAAGGAUAUGUCCACAGUGAGGAAACUCACUGUGGACAGAAGGUACAUGAGGAUCACCCAUGUUUCUC [ExDelusion 3 - Jieux - Exclusion 4] (Eterna round: R97, puzzle: Exclusion 4) | – | 213 | 39 | – |
| GAACCAAAAGGAUAUGGCGUAACAAACAUGAGGAUCACCCAUGUCCUCGAUGAAUAUCCGCCAGAAGGUUUGUCUC [Eternabot (L2) Solution 10] (Eterna round: R97, puzzle: Exclusion 5) | – | 1000 | 1760 | – |
| GAAGGUGAGCAGGAUAUCCGCGCACGAAUAUAAGGAGAAGGGCUUACAUGAGGAUCACCCAUGUAAGGUGGUAG [Rexequar] (puzzle: Exclusion 6) | 11.9 | – | – | apparent KD of MS2 coat protein [2]: 15.8 nM; apparent KD of MS2 coat protein [3]: 11.5 nM |
| GAAUAGAGAGGAUAUGCGAAGUAGGUAGUAAGAUAUAUCUGACAUGAGGAUCACCCAUGUAGAAGGCUCAGAUC [EX2 #4] (Eterna round: R97, puzzle: Exclusion 2) | – | 34.8 | 35.2 | – |

| Sequence | apparent KD of MS2 coat protein [1] [nM] | apparent KD of MS2 coat protein (input ligand: FMN 200 uM) [nM] | apparent KD of MS2 coat protein (input ligand: none) [nM] | also measured |
| --- | --- | --- | --- | --- |
| GAAUAGGCAGGAUAUACAUGAGGAUCACCCAUGUGCUUGCGAUAGGCACGUGAACAACGUAGAAGGGCCUUAAC [ChP 13.04.2015 #12] (Eterna round: R96, puzzle: Exclusion 3) | – | 184 | 34.9 | apparent KD of MS2 coat protein [4]: 30.8 nM |
| GAAUAGGCAGGAUAUACAUGAGGAUCACCCAUGUGCUUGCGAUAGGCACGUGAACAACGUAGAAGGGCCUUAAC [ChP 13.04.2015 #12] (puzzle: Exclusion 3) | 28.3 | – | – | – |
| GAAUAGGGAGGAUAUCCAAUAUAUGACAUGAGGAUCACCCAUGUUUCCACUCGUACCUCCGGAGAAGGCCCAUAAA [Ex5 #4] (Eterna round: R97, puzzle: Exclusion 5) | – | 22.8 | 19.9 | – |
| GACCAGGAAGGAUAUACAUACGGUUCGUGCCUUGGGCUGCGACAUGAGGAUCACCCAUGUAGAAGGUCCAGGUC [EX2 B.18] (Eterna round: R97, puzzle: Exclusion 2) | – | 47.1 | 18.6 | – |
| GACCGUGCUUAGGAUAUACGUUAGGAGUUGACCGUAGAAGGGAGUACAUGAGGAUCACCCAUGUCACCUACAGC [Eternabot (L2) Solution 75] (Eterna round: R97, puzzle: Exclusion 6) | – | 15.9 | 16.5 | – |
| GACUAGGGAGGAUAUAUUUGCAGUGUACCUCGGGUGAUCGCACUUGAGGAUCACCCAAGUAGAAGGCUCGAGGG [EX2 #26] (Eterna round: R97, puzzle: Exclusion 2) | – | 41.9 | 46.5 | – |
| GACUCGCACUGAGGAUAUCGAAACGAUACGUCGCGAGAAGGCAGAGCGAACAUGAGGAUCACCCAUGUGGGUUCGCCUGAUGUA [Geedinsoma] (Eterna round: R96, puzzle: Exclusion NG 1) | – | 23.2 | 16.7 | apparent KD of MS2 coat protein [4]: 12.9 nM |
| GACUGCAGAGGAUAUACAUGAGGAUCACCCAUGUGAGAUGCCUGACAGGUGUUGCUGAGUAGAAGGCUGCACUG [Onorveer] (puzzle: Exclusion 3) | 13.2 | – | – | – |
| GACUGGACAGGAUAUGUUCUUGAGCACUUGAGGAUCACCCAAGUCAUCAAGAACUCAGGCACAGAAGGGUUUAUGC [salish99_ex5_r4_011] (Eterna round: R97, puzzle: Exclusion 5) | – | 19.5 | 13.7 | – |
| GAGAAACAUGAGGAUCACCCAUGUAAGGAUAUGCUGAAAAUCACGGAUUAAUCGUGCAGCAGAAGGUACAAAGG [Mat - Mod of my Eli Mod D42] (puzzle: Exclusion 1) | 110 | – | – | apparent KD of MS2 coat protein [2]: 142 nM; apparent KD of MS2 coat protein [3]: 143 nM |
| GAGAACUGAGGAUAUACAUGAGGAUCACCCAUGUGAAGAAGAAAGUAGUGAUGGUUGGGUAGAAGGCAGAGAGA [JR_Ex3_Sub065] (Eterna round: R97, puzzle: Exclusion 3) | – | 52.4 | 46.3 | – |
| GAGAAUUCAUAGGAUAUCGUAUGGAUAAUUUAACGAGAAGGAUGAACAUGAGGAUCACCCAUGUGGUAUCAUGG [salish99_ex6_r3_002] (puzzle: Exclusion 6) | 87.5 | – | – | apparent KD of MS2 coat protein [2]: 83.5 nM; apparent KD of MS2 coat protein [3]: 95 nM |
| GAGACACAUGAGGAUCACCCAUGUGAGGAUAUCCGAAGGACCAAAUUAAGAAUUAAAGGGAGAAGGCACAUAAA [Exclusion 1 V5] (puzzle: Exclusion 1) | 27.2 | – | – | – |
| GAGAGGUCAGGAUAUACGGAGAGAGAGAGUAGGUGAGGGUAACAUGAGGAUCACCCAUGUAGAAGGGACUAAGG [JR_Exclu2_Sub075] (puzzle: Exclusion 2) | 48.4 | – | – | apparent KD of MS2 coat protein [2]: 51.7 nM; apparent KD of MS2 coat protein [3]: 46.3 nM |
| GAGCAGCGAGGAUAUACCUGGACCUGGUCCCAGGCCGAUCAACUUGAGGAUCACCCAAGUAGAAGGCGUGGCUC [Ceortiti] (Eterna round: R97, puzzle: Exclusion 2) | – | 322 | 401 | – |
| GAGGCAUGCCGAGGUCCACACAUGAGGAUCACCCAUGUAAUGACAGGCUUUUUACUCGUUUUACCGCUAUCGCGUUC [Gedied] (puzzle: Sensor v3, turn-off variant 1) | 21.7 | – | – | apparent KD of MS2 coat protein [2]: 14.9 nM; apparent KD of MS2 coat protein [3]: 12.7 nM |
| GAGGUGUUAGGAUAUCGGAGAUGGAGACCGACGGGAUGAGCCGAGAAGGAACAUGAGGAUCACCCAUGUAGGUG [JR_Exclu4_Sub033] (puzzle: Exclusion 4) | 386 | – | – | – |
| GAGUACUCAGGAUAUGCAUGAGUAGUGAUGUAGAGAGUGUGACAUGAGGAUCACCCAUGUAGAAGGGAGGAAUG [Version #1] (Eterna round: R97, puzzle: Exclusion 2) | – | 338 | 105 | – |
| GAGUGACAUGAGGAUCACCCAUGUGAGGAUAUCGGACGGACCAAAUUAACAACACCCGCGAGAAGGCACAUCGG [Exclusion 1 V21] (puzzle: Exclusion 1) | 110 | – | – | – |
